Results on one substance are retold here after article PMC8832513.

For orientation: Kd means the concentration at which binding is half-saturated. Read a low Kd as tighter binding.

The experiment has as its target RXFP1 construct pVL-11 (FLAG-eGFP-M82-S707-Avi) (human) (UniProt Q9HBX9). Briefly: SPR; receptor constructs captured via biotinylated Avi-tag on an SA chip (3000-5000 RU), Biacore T200, 20°C; running buffer 20 mM HEPES pH 7.5, 150 mM NaCl, 0.01% BSA, 0.1% DDM, 0.01% CHS; relaxin injected at 0.41-100 nM; kinetic fits; triplicates. In general terms: Surface plasmon resonance follows binding to a sensor surface in real time, without labels.
Chain of UniProt Q9HBX9 (Q9HBX9 82-707): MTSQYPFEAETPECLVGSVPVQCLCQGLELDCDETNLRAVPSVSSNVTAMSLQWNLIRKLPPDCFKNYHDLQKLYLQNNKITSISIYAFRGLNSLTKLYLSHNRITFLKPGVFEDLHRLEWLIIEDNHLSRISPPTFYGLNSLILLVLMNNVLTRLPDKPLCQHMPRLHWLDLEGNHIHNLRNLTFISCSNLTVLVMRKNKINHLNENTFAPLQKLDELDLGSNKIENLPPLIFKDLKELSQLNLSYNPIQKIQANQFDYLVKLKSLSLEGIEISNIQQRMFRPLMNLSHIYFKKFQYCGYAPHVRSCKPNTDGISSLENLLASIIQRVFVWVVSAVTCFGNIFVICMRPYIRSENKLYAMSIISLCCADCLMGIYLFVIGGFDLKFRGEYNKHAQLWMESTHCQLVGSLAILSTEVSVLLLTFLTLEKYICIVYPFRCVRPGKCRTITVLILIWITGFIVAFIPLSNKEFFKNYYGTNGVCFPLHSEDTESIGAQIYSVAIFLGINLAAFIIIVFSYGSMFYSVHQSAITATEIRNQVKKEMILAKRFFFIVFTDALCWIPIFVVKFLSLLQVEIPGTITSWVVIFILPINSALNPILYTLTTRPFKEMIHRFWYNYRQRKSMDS

Relaxin H2 (human) (ligand) returned a dissociation constant Kd of 20 nM.
